Data on 16 molecules can be found in patent US20040009177A1 (SERVICES, published 2004).

Test [1] addresses CX3CR1 on Vero cells (African green monkey). As to the kind of experiment: cell-based or functional assay.
In test [2] the target is purified recombinant soluble polyhistidine-tagged G glycoprotein (respiratory syncytial virus) (UniProt P03423). As to the kind of experiment: flow cytometry, GHIS on CX3CR1-293 cells with control antibody (68% without). In general terms: A flow cytometer gives signals particle by particle.
Test [3] has as its target CX3CR1 on naive mouse spleen leukocytes (mouse) (UniProt Q9Z0D9). In words: cell-based or functional assay.
The target in test [4] is T1, CX3CR1 on CX3CR1-transfected human embryonic kidney cells (293-CX3CR1 cells) (UniProt P49238 1-355).
T1 construct: whole, on cells; also called CX3C receptor; CX3CR1-293 cells
T1 sequence (looked up): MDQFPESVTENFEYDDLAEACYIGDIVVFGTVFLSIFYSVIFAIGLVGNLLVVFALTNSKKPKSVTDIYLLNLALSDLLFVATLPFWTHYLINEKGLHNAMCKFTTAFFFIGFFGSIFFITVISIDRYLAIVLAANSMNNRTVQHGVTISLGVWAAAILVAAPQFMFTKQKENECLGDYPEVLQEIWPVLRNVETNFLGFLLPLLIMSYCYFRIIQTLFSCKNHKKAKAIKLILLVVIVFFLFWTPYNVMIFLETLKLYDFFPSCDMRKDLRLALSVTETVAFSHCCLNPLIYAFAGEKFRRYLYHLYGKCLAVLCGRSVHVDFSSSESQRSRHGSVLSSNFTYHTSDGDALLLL
In words: flow cytometry, G glycoprotein on CX3CR1-293 cells with competitor peptide (84% without).

Test [5] concerns the target T1, CX3CR1 on CX3CR1-transfected human …. As to the kind of experiment: Scatchard analysis; displacement of 1 nM 125I-fractalkine from 293-CX3CR1 cells by unlabeled Fkn, 2 h 37°C with azide; mean±SD of three experiments.
A further test concerns the target T2, mouse Fkn (mouse) (UniProt O35188).
T2 sequence (looked up): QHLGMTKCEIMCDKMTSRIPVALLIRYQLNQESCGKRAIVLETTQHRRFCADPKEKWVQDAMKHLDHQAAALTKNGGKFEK
In words: cell-based or functional assay.

In test [6] the target is RSV G glycoprotein, purified from RSV/A2-infected Vero cells (respiratory syncytial virus, A2 strain) (UniProt P03423). As to the kind of experiment: cell-based or functional assay.
Test [7] concerns the target purified recombinant soluble polyhistidine-tagged G glycoprotein (respiratory syncytial virus) (UniProt P03423). As to the kind of experiment: flow cytometry; inhibition of polyhistidine-tagged G glycoprotein binding to 293-CX3CR1 cells.
Test [8] has the same target. As to the kind of experiment: flow cytometry, GHIS on CX3CR1-293 cells with antibody (68% without).
Test [9] has as its target RSV G glycoprotein, purified from RSV/A2-infected Vero cells (respiratory syncytial virus, A2 strain) (UniProt P03423). As to the kind of experiment: flow cytometry; inhibition of G glycoprotein binding to 293-CX3CR1 cells, in the absence of heparin.
Test [10] concerns the target T1, CX3CR1 on CX3CR1-transfected human …. As to the kind of experiment: inhibition of G glycoprotein binding to CX3CR1, methods described in the examples (no further detail).
Test [11] shares this target. As to the kind of experiment: Scatchard analysis; displacement of 1 nM 125I-fractalkine from 293-CX3CR1 cells by unlabeled G glycoprotein, 2 h 37°C with azide; mean±SD of three experiments.

Chain of CX3CR1 on naive mouse spleen leukocytes (mouse) (Q9Z0D9 whole entry): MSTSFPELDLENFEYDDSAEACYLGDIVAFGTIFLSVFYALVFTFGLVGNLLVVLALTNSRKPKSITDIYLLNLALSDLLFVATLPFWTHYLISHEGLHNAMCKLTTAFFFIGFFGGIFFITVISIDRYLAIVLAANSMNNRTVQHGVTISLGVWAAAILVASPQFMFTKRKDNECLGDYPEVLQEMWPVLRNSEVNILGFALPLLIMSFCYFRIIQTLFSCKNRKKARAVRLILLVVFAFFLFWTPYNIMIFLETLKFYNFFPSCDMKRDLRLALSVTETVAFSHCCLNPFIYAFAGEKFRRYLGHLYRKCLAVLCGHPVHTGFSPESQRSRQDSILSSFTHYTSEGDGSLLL

Molecule normal rabbit sera showed an RSV plaque inhibition (%) on Vero cells; Normal rabbit sera (control) in [1] of 6%.
For “anti-F glycoprotein monoclonal antibody 131-2A”, the percent positive staining of GHIS in the presence of the antibody in [2] is 60%.
In test [3], “mouse Fkn (from UniProt O35188 25-105) (ligand)” displayed a chemotactic index of mouse leukocytes toward G glycoprotein with Fkn as antagonist (chemotactic index) of 1.2 and an inhibition of mouse leukocyte chemotaxis toward G glycoprotein by Fkn of 75%.
Regarding VPCSICSNNPTC (synthetic 12-mer, lacks the CX3C motif) [G glycoprotein peptide RT32], in [4], the “percent positive staining of G glycoprotein in the presence of the peptide” value (“percent positive staining … of the peptide” below) is 72%.

B1: G glycoprotein peptide RT34 (peptide)
peptide: NKKPGKKTTTKP
notes: synthetic 12-mer C-terminal to the CX3C motif
Take B1: in [4], the “percent positive staining … of the peptide” value was 74%.

B2: G glycoprotein peptide RT33 (peptide)
peptide: TCWAICKRIPNK
notes: synthetic 12-mer with the CX3C motif CWAIC
B2: the “percent positive staining … of the peptide” value in test [4] was found to be 48%.
As for TCWACKRIPNK [G glycoprotein peptide ?-1, 11-mer variant of RT33 with a deletion of ILE in the CX3C motif], the “percent positive staining … of the peptide” value in test [4] was found to be 73%.

B3: human fractalkine (R&D Diagnostics) (ligand, UniProt P78423 25-100, looked up)
chain: QHHGVTKCNITCSKMTSKIPVALLIHYQQNQASCGKRAIILETRQHRLFCADPKEQWVKDAMQHLDRQAAALTRNG
notes: also called Fkn; human Fkn
As for B3, the affinity in test [5], expressed as Kd, was 5.8 nM.

B4: anti-G glycoprotein monoclonal antibody 131-2G (antibody, from another filing, V domains shown)
VH: EVQLQQSGPELVKPGTSVKISCKASGYSFTGFTMNWVKQSHGKNLEWFGLINPFNGNTGYNQKFKGKATLTVDKSSSTAFMELLSLTSEDSAVYYCARSGKSYDYEAWFTYWGQGTLVTVSA
VL: DIVMTQTTLSLPVSLGNQASISCRSSQTIVHTNGNTYLEWYLQKPGQSPKLLIYKVSNRFSGVPDRFSGSGSGTDFILNISRVEAEDLGVYYCFQGSHVPFTFGSGTKLEIKR
Molecule B4 displayed a chemotactic index of mouse leukocytes toward Fkn with anti-G glycoprotein (131-2G) (chemotactic index) with mouse Fkn (mouse) of 4.8. Further, the chemotactic index of mouse leukocytes toward G glycoprotein with anti-G glycoprotein (131-2G) (chemotactic index) in test [6] stood at 1.1. Besides, the percent inhibition in test [7] is 80 to 88%; in test [9], 32 to 48%. The percent positive staining of GHIS in the presence of the antibody in test [8] is 10%.

B5: G glycoprotein peptide EYp1, TCAAACKRIPNKK (SEQ ID NO: 5) (peptide)
peptide: TCAAACKRIPNKK
notes: 13-mer variant of RT33 with the motif CAAAC
Turning to B5, the percent inhibition in test [10] is > 90%.
Same read-out and setting: for TCNAACKRIPNKK [peptide TCNAACKRIPNKK (SEQ ID NO: 7)] the value was > 90%; for TCMAACKRIPNKK [peptide TCMAACKRIPNKK (SEQ ID NO: 10)], > 90%; for TCFAACKRIPNKK [peptide TCFAACKRIPNKK (SEQ ID NO: 11)], > 90%.
The same measure, in the same setting: for TCDAACKRIPNKK [peptide TCDAACKRIPNKK (SEQ ID NO: 8)] the value was > 90%.
Same read-out and setting: for TCWAACKRIPNKK [peptide TCWAACKRIPNKK (SEQ ID NO: 6)] the value was > 90%.

B6: RSV G glycoprotein, purified from RSV/A2-infected Vero cells (ligand, respiratory syncytial virus, A2 strain, UniProt P03423 1-298, looked up)
chain: MSKNKDQRTAKTLERTWDTLNHLLFISSCLYKLNLKSVAQITLSILAMIISTSLIIAAIIFIASANHKVTPTTAIIQDATSQIKNTTPTYLTQNPQLGISPSNPSEITSQITTILASTTPGVKSTLQSTTVKTKNTTTTQTQPSKPTTKQRQNKPPSKPNNDFHFEVFNFVPCSICSNNPTCWAICKRIPNKKPGKKTTTKPTKKPTLKTTKKDPKPQTTKSKEVPTTKPTEEPTINTTKTNIITTLLTSNTTGNPELTSQMETFHSTSSEGNPSPSQVSTTSEYPSQPSSPPNTPRQ
notes: Lectin and Q-Sepharose purified; concentration estimated with a molecular weight of 90 kD; also called attachment protein
B6 yielded a Kd in test [11] of 2.1 nM.

Broadly, the Kd is the concentration at which binding is half-saturated. Read a low Kd as a tighter complex.
